# Laboratory results: paper PMC2650391 (2009)
# Target: Histone H3K4me3 peptide (Homo sapiens, UniProt P68431)
binder,measurement,value
ING4 PHD (protein) PNEPTYCLCHQVSYGEMIGCDNPDCSIEWFHFACVGLTTKPRGKWFCPRCSQERKK,Kd,7.9 µM
